Data from patent US7604990.

Tests used:
PDGFR-α (human) = PDGFR-α (human) (UniProt P16234); test: cell-based or functional assay
PDGFR-β (human) = PDGFR-β (human) (UniProt P09619); test: cell-based or functional assay
PDGFR-β (human), sequence (P09619 33-1106): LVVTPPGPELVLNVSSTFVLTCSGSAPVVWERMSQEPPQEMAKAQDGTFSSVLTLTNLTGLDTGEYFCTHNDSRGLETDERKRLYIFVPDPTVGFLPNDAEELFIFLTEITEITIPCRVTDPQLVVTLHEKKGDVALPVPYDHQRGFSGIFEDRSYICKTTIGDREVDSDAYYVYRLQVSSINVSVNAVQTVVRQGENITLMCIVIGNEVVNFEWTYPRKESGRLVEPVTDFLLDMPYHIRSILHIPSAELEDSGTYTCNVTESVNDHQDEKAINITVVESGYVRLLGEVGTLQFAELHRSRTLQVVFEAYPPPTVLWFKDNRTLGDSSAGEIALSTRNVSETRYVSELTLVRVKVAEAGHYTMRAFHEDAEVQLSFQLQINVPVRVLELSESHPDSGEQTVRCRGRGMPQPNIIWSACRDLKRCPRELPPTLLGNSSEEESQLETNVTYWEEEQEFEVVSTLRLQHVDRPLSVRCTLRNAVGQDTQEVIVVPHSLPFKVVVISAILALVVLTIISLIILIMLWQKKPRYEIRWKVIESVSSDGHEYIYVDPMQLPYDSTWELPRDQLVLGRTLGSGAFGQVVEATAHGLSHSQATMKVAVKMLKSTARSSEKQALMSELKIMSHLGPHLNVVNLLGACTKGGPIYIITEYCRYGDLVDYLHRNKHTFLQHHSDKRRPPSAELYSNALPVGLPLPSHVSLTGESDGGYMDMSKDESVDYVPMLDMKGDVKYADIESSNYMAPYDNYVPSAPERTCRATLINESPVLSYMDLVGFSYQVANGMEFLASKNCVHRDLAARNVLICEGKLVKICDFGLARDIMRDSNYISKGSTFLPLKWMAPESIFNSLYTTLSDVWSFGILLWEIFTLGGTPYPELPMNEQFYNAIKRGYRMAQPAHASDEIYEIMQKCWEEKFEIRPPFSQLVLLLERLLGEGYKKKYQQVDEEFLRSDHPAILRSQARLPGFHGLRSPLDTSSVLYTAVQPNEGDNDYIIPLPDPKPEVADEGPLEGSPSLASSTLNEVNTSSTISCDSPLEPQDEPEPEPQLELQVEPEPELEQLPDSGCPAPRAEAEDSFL

PDGFR-α (human), sequence (P16234 24-1089): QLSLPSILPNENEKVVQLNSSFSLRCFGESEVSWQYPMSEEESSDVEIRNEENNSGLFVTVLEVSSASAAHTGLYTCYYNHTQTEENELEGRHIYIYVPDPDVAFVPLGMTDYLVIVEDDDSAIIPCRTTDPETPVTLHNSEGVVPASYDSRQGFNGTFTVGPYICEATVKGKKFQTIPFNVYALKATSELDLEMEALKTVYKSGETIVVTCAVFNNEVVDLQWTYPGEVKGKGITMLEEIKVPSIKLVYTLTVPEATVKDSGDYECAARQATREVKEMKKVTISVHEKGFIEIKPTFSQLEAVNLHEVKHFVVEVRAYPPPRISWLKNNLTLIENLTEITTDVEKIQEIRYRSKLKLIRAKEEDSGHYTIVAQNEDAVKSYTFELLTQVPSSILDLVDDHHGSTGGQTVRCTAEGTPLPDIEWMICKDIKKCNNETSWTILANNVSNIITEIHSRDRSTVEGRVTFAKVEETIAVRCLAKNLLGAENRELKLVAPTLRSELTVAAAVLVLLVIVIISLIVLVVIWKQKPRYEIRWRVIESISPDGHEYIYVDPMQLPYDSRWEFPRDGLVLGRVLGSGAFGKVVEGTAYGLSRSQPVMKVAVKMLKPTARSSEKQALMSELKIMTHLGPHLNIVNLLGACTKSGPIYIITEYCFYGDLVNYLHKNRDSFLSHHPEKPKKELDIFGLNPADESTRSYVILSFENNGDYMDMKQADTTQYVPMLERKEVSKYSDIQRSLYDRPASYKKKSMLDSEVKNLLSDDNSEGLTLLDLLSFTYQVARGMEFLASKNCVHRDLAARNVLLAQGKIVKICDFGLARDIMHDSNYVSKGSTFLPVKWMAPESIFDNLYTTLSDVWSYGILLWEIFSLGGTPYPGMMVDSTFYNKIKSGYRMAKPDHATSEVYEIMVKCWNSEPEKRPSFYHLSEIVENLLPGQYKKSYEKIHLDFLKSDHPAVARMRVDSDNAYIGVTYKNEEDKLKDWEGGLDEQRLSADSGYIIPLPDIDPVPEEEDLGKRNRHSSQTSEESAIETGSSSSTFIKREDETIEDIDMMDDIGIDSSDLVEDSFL

Substance | GCTM2 expression (ELISA-based assay; hES cells treated 2 weeks in serum-free medium with S1P plus PDGF-AA) (PDGFR-α (human)) | GCTM2 expression (ELISA-based assay; hES cells treated 2 weeks in serum-free medium with S1P plus PDGF-AB) (% more GCTM2+ than the controls) (PDGFR-β (human)) | GCTM2 expression (ELISA-based assay; hES cells treated 2 weeks in serum-free medium with S1P plus PDGF-AB) (% more GCTM2+ than the controls) (PDGFR-α (human))
Human PDGF-AA (from UniProt P04085 87-211) (ligand) | 220 % of control |  | 
Human PDGF-AB (from UniProt P04085 87-211; P01127 82-190) (ligand) |  | 153 | 153
